Tests used:
[1] = target: T1, sCD4 D1D2 (domains 1 and 2; residues 1-186 of mature CD4); assay: cryo-EM structure; conditions: both partners purified
T1 construct: also called soluble CD4; source: HEK293-6E, transient transfection, purified (Ni-NTA, SEC)

B41 SOSIP.664 v4.2 = target: T2, B41 SOSIP.664 v4.2 (HIV-1 (clade B B41)); assay: cryo-EM structure; conditions: both partners purified
T2 construct: copies: 3 + 3

B1: 21c Fab (Fab, V domains shown)
VH: QVQVVQSGAEVRKPGASVKVSCKVSGFTLTGLSIHWVRQAPGKGLEWMGGFGPEENEIIYAQKFQGRVSMTEDTSTNTAYMELSSLRSEDTAVYYCATGGNYYNLWTGYYPLAYWGQGTLVTVSS
VL: QSVLTQPPSVSAAPGQKVTISCSGSSSNIGKNYVSWYQQLPGAAPKLLIFDDTQRPSGIPDRFSGSKSGTSATLAITGLQTGDEADYYCGTWDSSLSTGQLFGGGTKLTVL
notes: also called CD4i antibody 21c
In the case of B1, the binding result [1] is reported as “binds” and the “stoichiometry N” value (B41 SOSIP.664 v4.2) is reported as 3 copies per Env trimer.

— paper PMC6185872 (Cell Host & Microbe, 2018)
